To fix the notation:
B3: GST-DnaK (natural protein)
chain: not shown
notes: DnaK (Hsp70), Salmonella enterica serovar Typhimurium; dnaK cloned into BamHI and XhoI sites of pGEX-6P-1; source: E. coli BL21(DE3), purified (glutathione-Sepharose 4B)

For assay [1], the target named is E. coli holoenzyme RNA polymerase (E. coli, UniProt P0A7Z4 1-329; P0A8V2 1-1342). The assay can be described thus: cell-based or functional assay.
The target of the next assay is T1, DnaJ C268A-6×His (Salmonella enterica serovar Typhimurium, UniProt P0A1G7 1-379, C268A).
T1 construct: DnaJ, Salmonella enterica serovar Typhimurium; point mutant of full-length dnaJ in pET-22b(+); not shown: 6×His, C-terminal, kept
Kind of assay: pull-down; GST fusion (bait) on glutathione-Sepharose 4B beads, 50 mM Tris-HCl pH 7.5, 4°C, 2 h with C-terminally 6×His-tagged prey; wash 50 mM NaCl, elution 500 mM NaCl; anti-6×His immunoblot. To be noted: both partners purified. (A western blot detects proteins with antibodies after separation by electrophoresis.)

The target in a further assay is T2, DnaJ C186H-6×His (Salmonella enterica serovar Typhimurium, UniProt P0A1G7 1-379, C186H).
T2 construct: DnaJ, Salmonella enterica serovar Typhimurium; point mutant of full-length dnaJ in pET-22b(+); not shown: 6×His, C-terminal, kept
The assay is described as above. To be noted: both partners purified.

Another assay concerns the target T3, DnaJ ΔZn1-6×His (Salmonella enterica serovar Typhimurium, UniProt P0A1G7 1-379, C147S | C150S | C200S | C203S).
T3 construct: DnaJ, Salmonella enterica serovar Typhimurium; also called C147S C150S C200S C203S; not shown: 6×His, C-terminal, kept
The assay is described as above. To be noted: both partners purified.

In the next assay the target is T4, DnaJ H33Q-6×His (Salmonella enterica serovar Typhimurium, UniProt P0A1G7 1-379, H33Q).
T4 construct: DnaJ, Salmonella enterica serovar Typhimurium; point mutant of full-length dnaJ in pET-22b(+); also called DnaJ H33Q recombinant variant; not shown: 6×His, C-terminal, kept
The description is as above. To be noted: both partners purified.

In a further assay the target is T5, GST-DnaK T199A (Salmonella enterica serovar Typhimurium, UniProt Q56073 1-638, T199A).
T5 construct: DnaK (Hsp70), Salmonella enterica serovar Typhimurium; point mutant of dnaK in pGEX-6P-1; also called recombinant DnaK T199A variant; source: E. coli BL21(DE3), purified (glutathione-Sepharose 4B)
Described as above. To be noted: both partners purified.

The target of the assay “GST-DnaK” is B3. The description is as above. To be noted: both partners purified.

B1: oxidized GST-DksA (natural protein)
chain: MQEGQNRKTSSLSILAIAGVEPYQEKPGEEYMNEAQLSHFKRILEAWRNQLRDEVDRTVTHMQDEAANFPDPVDRAAQEEEFSLELRNRDRERKLIKKIEKTLKKVEDEDFGYCESCGVEIGIRRLEARPTADLCIDCKTLAEIREKQMAG
modifications: cysteine residues oxidized (disulfide-bonded) by treatment with H2O2; positions not given
notes: DksA, Salmonella enterica serovar Typhimurium; dksA cloned into BamHI and XhoI sites of pGEX-6P-1; For the in vitro transcription assays the GST tag was removed with PreScission protease and oxidation was with 1 mM H2O2; also called oxidized DksA; source: E. coli BL21(DE3), purified (glutathione-Sepharose 4B); treated with 100 μM H2O2 for 1 h at 37°C
For B1, in assay [1], the “livJ in vitro transcription (qRT-PCR): 5 μM oxidized DksA (GST tag removed), 5 nM RNA polymerase, 50 nM DnaJ, upon addition of 500 nM untagged DnaK” value is above 10 fold. For the same molecule, the binding result with DnaJ C268A-6×His, with DnaJ C186H-6×His, in the assay with DnaJ ΔZn1-6×His and with DnaJ H33Q-6×His was “binds” in each case.

B2: DnaJ-6×His (natural protein, Salmonella enterica serovar Typhimurium, UniProt P0A1G7 1-379, looked up)
chain: MAKRDYYEILGVSKTAEEREIKKAYKRLAMKYHPDRNQGDKEAEAKFKEIKEAYEVLTDAQKRAAYDQYGHAAFEQGGMGGGFGGGFNGGADFSDIFGDVFGDIFGGGRGRQRAARGADLRYNMDLTLEEAVRGVTKEIRIPTLEECDVCHGSGAKAGTQPQTCPTCHGSGQVQMRQGFFAVQQTCPHCQGRGTLIKDPCHKCHGHGRVEKSKTLSVKIPAGVDTGDRIRLAGEGEAGEHGAPAGDLYVQVQVKQHPIFEREGNNLYCEVPINFAMAALGGEIEVPTLDGRVMLKVPSETQTGKLFRMRGKGVKSVRGGAQGDLLCRVVVETPVGLSEKQKQLLKDLQESFGGPTGEKNSPRSKSFFDGVKKFFDDLTR
notes: DnaJ, Salmonella enterica serovar Typhimurium; full-length dnaJ in NdeI and XhoI sites of pET-22b(+); also called wild-type DnaJ protein; C-terminally 6×His-tagged DnaJ; not shown: 6×His, C-terminal, kept
B2: the binding result with GST-DnaK T199A and with GST-DnaK was “binds” each time.
As to B3, in the assay with DnaJ H33Q-6×His, the binding result is “binds”.

(Values after article PMC8262869, “The DnaK/DnaJ Chaperone System Enables RNA Polymerase-DksA Complex Formation in Salmonella Experiencing Oxidative Stress” (mBio, 2021).)
